In US20150337292A1 one finds percent of cells within the marker region M1 data, which are given here for one substance.

For assay [1], the target named is hsEGFR (human (printed only as 'hs')) (UniProt P00533). The assay can be described thus: two-colour flow cytometry after 24 hours, b-hsEGFR/SA-PE and Fc-specific AlexaFluor 647. Background: Flow cytometry measures light scatter and fluorescence of single cells or particles in a stream.
Assay [2] has the same target. The assay is described as follows: two-colour flow cytometry after 48 hours, b-hsEGFR/SA-PE and Fc-specific AlexaFluor 647.

“antibody matuzumab (IgG molecule) secreted by yeast and displayed through the ZZ domain”: the percent of cells within the marker region M1 in assay [1] amounted to 36.4%; in assay [2], 43.4%.
